Changes are numbered by the printed parent chain.
T1: ScMad2^RQEA (recombinant, Arg126-Glu/Gln127-Ala) (S. cerevisiae, UniProt P40958 1-196, R126E | Q127A)
T1 sequence: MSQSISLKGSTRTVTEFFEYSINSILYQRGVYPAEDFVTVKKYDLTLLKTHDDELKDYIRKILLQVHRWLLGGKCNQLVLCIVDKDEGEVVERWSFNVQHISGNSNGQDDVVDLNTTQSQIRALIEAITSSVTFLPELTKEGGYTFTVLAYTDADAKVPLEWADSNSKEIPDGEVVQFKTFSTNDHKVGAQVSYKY

T2: AlexaFluor488-ScMad2^wt (S. cerevisiae, UniProt P40958 1-196, AlexaFluor488 succimidyl ester reactive dye, covalent, final dye/protein ratio ~0.5)
T2 sequence: T1 sequence with E126R, A127Q

B1: HsCdc20^111–138 synthetic peptide (peptide)
peptide: EHQKAWALNLNGFDVEEAKILRLSGKPQ
B2: ScMad2^wt (recombinant S. cerevisiae Mad2, wild type) (natural protein)
chain: T1 sequence with E126R, A127Q
B3: GST-ScCdc20^184–210 (domain or fragment)
chain: IVFKQNVAEACGLDMNKRILQYMPEPP
B4: GST-ScMad1^563–590 (domain or fragment)
chain: QLLQEKLEKLTKLKEKKIRILQLRDGPF
B5: ScCdc20^195–211 synthetic peptide (peptide)
peptide: GLDMNKRILQYMPEPPK
B6: ScMad2^ΔC (recombinant, six residues deleted from the C terminus) (domain or fragment)
chain: MSQSISLKGSTRTVTEFFEYSINSILYQRGVYPAEDFVTVKKYDLTLLKTHDDELKDYIRKILLQVHRWLLGGKCNQLVLCIVDKDEGEVVERWSFNVQHISGNSNGQDDVVDLNTTQSQIRALIRQITSSVTFLPELTKEGGYTFTVLAYTDADAKVPLEWADSNSKEIPDGEVVQFKTFSTNDHKVGA

Tests used:
AlexaFluor488-HsMad2^wt = AlexaFluor488-HsMad2^wt (human, UniProt Q13257 1-205, AlexaFluor488, covalent); experiment: SEC
Chain of AlexaFluor488-HsMad2^wt (Q13257 whole entry): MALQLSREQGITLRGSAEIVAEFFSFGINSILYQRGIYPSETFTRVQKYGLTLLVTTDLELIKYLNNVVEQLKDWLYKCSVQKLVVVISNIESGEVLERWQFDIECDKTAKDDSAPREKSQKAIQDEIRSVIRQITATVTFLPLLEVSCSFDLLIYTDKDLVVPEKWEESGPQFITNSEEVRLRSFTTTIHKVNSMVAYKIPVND

[1] = target: C-Mad2^wt–Cdc20^195–211 complex (S. cerevisiae, UniProt P40958;P26309); experiment: SEC
[2] = target: B2; experiment: pull-down
[3] = target: T1, ScMad2^RQEA (recombinant, …); experiment: ITC
AlexaFluor488-ScMad2^wt = target: T2, AlexaFluor488-ScMad2^wt; experiment: SEC
[4] = target: B2; experiment: SEC

B1
binding result (AlexaFluor488-HsMad2^wt): binds

B2
percent of total Mad2 in the dimer peak at a 4:1 Mad2/Cdc20^195–211 ratio [1]: ~50%

B3
binding result [2]: binds

B4
binding result [2]: binds

B5
binding result [3]: binds | binding result (AlexaFluor488-ScMad2^wt): binds

B6
binding result [4]: binds
